± gives the uncertainty stated by the source.
B1: Far upstream element-binding protein 2, residues 142 to 214; numbered along this chain, Q92945 (parent)
chain: RTSMTEEYRVPDGMVGLIIGRGGEQINKIQQDSGCKVQISPDSGGLPERSVSLTGAPESVQKAKMMLDDIVSR

Variants of: B1
Test: abundance fitness (aPCA) (normalised: wild type 0, dead -1); higher = more abundant; growth selection in yeast, the domain comes from the species named
Settings: Homo sapiens

Point of comparison: RTSMTEEYRVPDGMVGLIIGRGGEQINKIQQDSGCKVQISHDSGGLPERSVSLTGAPESVQKAKMMLDDIVSR [P41H], abundance fitness 0.035 ± 0.091. Against it:
- RTSMTEEYRVPDGMVGLIIGRGGEQINKIQQDSGCKVQIQPDSGGLPERSVSLTGAPESVQKAKMMLDDIVSR [S40Q] — within error, 0.009 ± 0.055
- RTSMTEEYRVPDGMVGLIIGRGGEQINKIQQDSGCKVQIAPDSGGLPERSVSLTGAPESVQKAKMMLDDIVSR [S40A] — within error, 0.027 ± 0.042
- RTSMTEEYRVPDGMVGLIIGRGGEQINKIQQDSGCKVQILPDSGGLPERSVSLTGAPESVQKAKMMLDDIVSR [S40L] — within error, 0.01 ± 0.049
- RTSMTEEYRVPDGMVGLIIGRGGEQINKIQQDSGCKVQITPDSGGLPERSVSLTGAPESVQKAKMMLDDIVSR [S40T] — within error, -0.059 ± 0.053
- RTSMTEEYRVPDGMVGLIIGRGGEQINKIQQDSGCKVQIMPDSGGLPERSVSLTGAPESVQKAKMMLDDIVSR [S40M] — within error, -0.024 ± 0.068
- RTSMTEEYRVPDGMVGLIIGRGGEQINKIQQDSGCKVQIVPDSGGLPERSVSLTGAPESVQKAKMMLDDIVSR [S40V] — within error, 0.025 ± 0.044
- RTSMTEEYRVPDGMVGLIIGRGGEQINKIQQDSGCKVQIDPDSGGLPERSVSLTGAPESVQKAKMMLDDIVSR [S40D] — within error, -0.076 ± 0.067
- RTSMTEEYRVPDGMVGLIIGRGGEQINKIQQDSGCKVQIEPDSGGLPERSVSLTGAPESVQKAKMMLDDIVSR [S40E] — within error, -0.013 ± 0.047
- RTSMTEEYRVPDGMVGLIIGRGGEQINKIQQDSGCKVQIPPDSGGLPERSVSLTGAPESVQKAKMMLDDIVSR [S40P] — within error, -0.011 ± 0.053
- RTSMTEEYRVPDGMVGLIIGRGGEQINKIQQDSGCKVQIGPDSGGLPERSVSLTGAPESVQKAKMMLDDIVSR [S40G] — within error, -0.042 ± 0.037
- RTSMTEEYRVPDGMVGLIIGRGGEQINKIQQDSGCKVQICPDSGGLPERSVSLTGAPESVQKAKMMLDDIVSR [S40C] — within error, -0.057 ± 0.067
- RTSMTEEYRVPDGMVGLIIGRGGEQINKIQQDSGCKVQIWPDSGGLPERSVSLTGAPESVQKAKMMLDDIVSR [S40W] — lower, -0.207 ± 0.055
- RTSMTEEYRVPDGMVGLIIGRGGEQINKIQQDSGCKVQIYPDSGGLPERSVSLTGAPESVQKAKMMLDDIVSR [S40Y] — lower, -0.187 ± 0.089
- RTSMTEEYRVPDGMVGLIIGRGGEQINKIQQDSGCKVQIIPDSGGLPERSVSLTGAPESVQKAKMMLDDIVSR [S40I] — within error, -0.069 ± 0.095
- RTSMTEEYRVPDGMVGLIIGRGGEQINKIQQDSGCKVQIRPDSGGLPERSVSLTGAPESVQKAKMMLDDIVSR [S40R] — within error, -0.029 ± 0.037
- RTSMTEEYRVPDGMVGLIIGRGGEQINKIQQDSGCKVQINPDSGGLPERSVSLTGAPESVQKAKMMLDDIVSR [S40N] — within error, 0.097 ± 0.089
- RTSMTEEYRVPDGMVGLIIGRGGEQINKIQQDSGCKVQIKPDSGGLPERSVSLTGAPESVQKAKMMLDDIVSR [S40K] — within error, -0.007 ± 0.065
- RTSMTEEYRVPDGMVGLIIGRGGEQINKIQQDSGCKVQIHPDSGGLPERSVSLTGAPESVQKAKMMLDDIVSR [S40H] — within error, -0.078 ± 0.072
- RTSMTEEYRVPDGMVGLIIGRGGEQINKIQQDSGCKVQISTDSGGLPERSVSLTGAPESVQKAKMMLDDIVSR [P41T] — within error, -0.05 ± 0.056
- RTSMTEEYRVPDGMVGLIIGRGGEQINKIQQDSGCKVQISFDSGGLPERSVSLTGAPESVQKAKMMLDDIVSR [P41F] — within error, -0.122 ± 0.095
- RTSMTEEYRVPDGMVGLIIGRGGEQINKIQQDSGCKVQISWDSGGLPERSVSLTGAPESVQKAKMMLDDIVSR [P41W] — lower, -0.299 ± 0.06
- RTSMTEEYRVPDGMVGLIIGRGGEQINKIQQDSGCKVQISCDSGGLPERSVSLTGAPESVQKAKMMLDDIVSR [P41C] — within error, -0.017 ± 0.084
- RTSMTEEYRVPDGMVGLIIGRGGEQINKIQQDSGCKVQISADSGGLPERSVSLTGAPESVQKAKMMLDDIVSR [P41A] — within error, 0.007 ± 0.047
- RTSMTEEYRVPDGMVGLIIGRGGEQINKIQQDSGCKVQISEDSGGLPERSVSLTGAPESVQKAKMMLDDIVSR [P41E] — within error, -0.04 ± 0.055
- RTSMTEEYRVPDGMVGLIIGRGGEQINKIQQDSGCKVQISRDSGGLPERSVSLTGAPESVQKAKMMLDDIVSR [P41R] — within error, -0.061 ± 0.043
- RTSMTEEYRVPDGMVGLIIGRGGEQINKIQQDSGCKVQISLDSGGLPERSVSLTGAPESVQKAKMMLDDIVSR [P41L] — lower, -0.172 ± 0.048
- RTSMTEEYRVPDGMVGLIIGRGGEQINKIQQDSGCKVQISYDSGGLPERSVSLTGAPESVQKAKMMLDDIVSR [P41Y] — within error, -0.099 ± 0.092
- RTSMTEEYRVPDGMVGLIIGRGGEQINKIQQDSGCKVQISMDSGGLPERSVSLTGAPESVQKAKMMLDDIVSR [P41M] — within error, -0.09 ± 0.067
- RTSMTEEYRVPDGMVGLIIGRGGEQINKIQQDSGCKVQISSDSGGLPERSVSLTGAPESVQKAKMMLDDIVSR [P41S] — within error, -0.017 ± 0.049
- RTSMTEEYRVPDGMVGLIIGRGGEQINKIQQDSGCKVQISGDSGGLPERSVSLTGAPESVQKAKMMLDDIVSR [P41G] — within error, -0.055 ± 0.044
- RTSMTEEYRVPDGMVGLIIGRGGEQINKIQQDSGCKVQISIDSGGLPERSVSLTGAPESVQKAKMMLDDIVSR [P41I] — within error, -0.024 ± 0.094
- RTSMTEEYRVPDGMVGLIIGRGGEQINKIQQDSGCKVQISNDSGGLPERSVSLTGAPESVQKAKMMLDDIVSR [P41N] — lower, -0.141 ± 0.083
- RTSMTEEYRVPDGMVGLIIGRGGEQINKIQQDSGCKVQISDDSGGLPERSVSLTGAPESVQKAKMMLDDIVSR [P41D] — within error, 0.032 ± 0.087
- RTSMTEEYRVPDGMVGLIIGRGGEQINKIQQDSGCKVQISPTSGGLPERSVSLTGAPESVQKAKMMLDDIVSR [D42T] — within error, 0.007 ± 0.053
- RTSMTEEYRVPDGMVGLIIGRGGEQINKIQQDSGCKVQISPPSGGLPERSVSLTGAPESVQKAKMMLDDIVSR [D42P] — within error, -0.006 ± 0.051
- RTSMTEEYRVPDGMVGLIIGRGGEQINKIQQDSGCKVQISPMSGGLPERSVSLTGAPESVQKAKMMLDDIVSR [D42M] — lower, -0.15 ± 0.057

— the Human Domainome abundance scans (Beltran et al. 2025)
